From article PMC7661517

Molecular target: hen egg white lysozyme (chicken) (UniProt P00698)
Test: SPR; lysozyme immobilised on a CM5 chip by amine coupling (200 RU); Affitins injected at 15.6-500 nM; 25 °C; HBSEP pH 7.4 (10 mM Hepes, 150 mM NaCl, 2 mM EDTA, 0.05% P20); association 2 min, dissociation 7 min; apparent

Sequence of UniProt P00698 (P00698 19-147): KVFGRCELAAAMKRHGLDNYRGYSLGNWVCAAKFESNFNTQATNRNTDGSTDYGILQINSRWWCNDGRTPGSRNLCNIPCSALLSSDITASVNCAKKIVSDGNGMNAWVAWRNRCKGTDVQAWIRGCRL

## Affitin H4 mutant M1 (F6W-F7I) (designed binder)
  Kd: 3.98 nM

## Affitin H4 mutant M2 (L31I-F32W) (designed binder)
  Kd: 440 nM

## Affitin H4 mutant M3 (L54I-L55V-L58I) (designed binder)
  Kd: 7.5 nM
